Square brackets hold non-standard residues; d marks the D form. Chem. 28 = not defined here; Aib = CC(C)(N)C(=O)O
T1: human GIP receptor (human, UniProt P48546 22-466)
T1 sequence (looked up): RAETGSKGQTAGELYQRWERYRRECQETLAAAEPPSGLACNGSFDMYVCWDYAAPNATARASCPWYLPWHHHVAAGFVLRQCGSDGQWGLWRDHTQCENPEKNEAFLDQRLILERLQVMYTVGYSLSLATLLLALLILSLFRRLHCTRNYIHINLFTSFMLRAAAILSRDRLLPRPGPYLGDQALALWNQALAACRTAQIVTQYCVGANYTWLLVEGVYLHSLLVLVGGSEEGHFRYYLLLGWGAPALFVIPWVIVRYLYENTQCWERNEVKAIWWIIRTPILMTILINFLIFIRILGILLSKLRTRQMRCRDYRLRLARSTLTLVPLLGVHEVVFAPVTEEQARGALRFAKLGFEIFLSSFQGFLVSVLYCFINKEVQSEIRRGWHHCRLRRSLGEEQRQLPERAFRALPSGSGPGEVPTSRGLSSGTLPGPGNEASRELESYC

T2: human amylin-3(a) receptor (human, UniProt P30988 25-474; O60896 24-148)
T2 sequence (looked up) 1: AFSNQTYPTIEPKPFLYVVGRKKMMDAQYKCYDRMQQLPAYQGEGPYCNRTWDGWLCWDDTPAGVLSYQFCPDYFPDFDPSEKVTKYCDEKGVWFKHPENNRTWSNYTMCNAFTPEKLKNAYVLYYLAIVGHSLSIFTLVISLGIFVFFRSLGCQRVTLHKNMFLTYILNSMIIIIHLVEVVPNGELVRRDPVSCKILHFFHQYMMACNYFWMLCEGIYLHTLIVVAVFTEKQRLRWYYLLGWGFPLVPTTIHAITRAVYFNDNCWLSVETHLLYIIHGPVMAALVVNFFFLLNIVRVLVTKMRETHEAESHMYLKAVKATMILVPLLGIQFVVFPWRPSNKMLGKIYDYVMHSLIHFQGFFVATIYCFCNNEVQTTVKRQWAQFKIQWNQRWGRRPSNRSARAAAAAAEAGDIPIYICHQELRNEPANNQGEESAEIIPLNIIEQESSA
T2 sequence (looked up) 2: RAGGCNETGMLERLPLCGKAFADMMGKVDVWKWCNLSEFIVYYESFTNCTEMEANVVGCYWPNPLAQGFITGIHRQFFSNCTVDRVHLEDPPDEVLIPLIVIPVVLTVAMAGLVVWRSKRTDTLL

B1: Compound 37 (peptide)
peptide: H[Aib]HGTFTSDYSILLEEQAAREFIEWLLAGGPSK(Chem. 28)GAPPPSGGGEASHLSTAQTARLSAELHRLADLPRTETGSGSP-NH2
modifications: reading uncertain
B2: Compound 51 (peptide)
peptide: H[Aib]HGTFTSDYSILLEEQAAREFIEWLLAGGPSSGALAQTLAQTLASHLSTAQTQRLSAELHK(Chem. 28)LATLPRTETGSGSP-NH2
modifications: reading uncertain
B3: Compound 50 (peptide)
peptide: Y[Aib]EGTFTSDYSILLEEQAAREFIEWLLAGGPSSGEASHLSTAQTQRLSAELHK(Chem. 28)LATLPRTETGSGSP-NH2
modifications: reading uncertain
B4: Compound 47 (peptide)
peptide: H[Aib]HGTFTSDYSILLEEQAAREFIEWLLAGGPSK(Chem. 28)GAGQAPGQAPGASHLSTAQTQRLSAELHELATLPRTETGSGSP-NH2
modifications: reading uncertain
B5: Compound 55 (peptide)
peptide: Y[Aib]EGTFTSDYSILLEEQAAREFIEWLLAGGPSSGAGQAPGQAPGASHLSTAQTQRLSAK(Chem. 28)LHRLATLPRTETGSGSP-NH2
modifications: reading uncertain
B6: Compound 52 (peptide)
peptide: Y[Aib]EGTFTSDYSILLEEQAAREFIEWLLAGGPSSGAGQAPGQAPGASHLSTAQTQRLSAELHK(Chem. 28)LATLPRTETGSGSP-NH2
modifications: reading uncertain
B7: Compound 43 (peptide)
peptide: H[Aib]HGTFTSDYSILLEEQAAREFIEWLLAGGPSK(Chem. 28)GEASQLSTAALGRLSAELHRLADLPRTETGSGSP-NH2
modifications: reading uncertain
B8: Compound 39 (peptide)
peptide: Y[Aib]EGTFTSDYSILLEEQAAREFIEWLLAGGPSK(Chem. 28)GGQEPGQEPGEASHLSTAQTQRLSAELHELATLPRTETGSGSP-NH2
modifications: reading uncertain
B9: Compound 56 (peptide)
peptide: Y[Aib]EGTFTSDYSILLEEQAAREFIEWLLAGGPSSGAGQAPGQAPGASHLSTAQTQRLSAELHRLK(Chem. 28)TLPRTETGSGSP-NH2
modifications: reading uncertain
B10: Compound 48 (peptide)
peptide: Y[Aib]EGTFTSDYSILLEEQAAREFIEWLLAGGPSSGALAQTLAQTLASHLSTAQTQRLSAELHK(Chem. 28)LATLPRTETGSGSP-NH2
modifications: reading uncertain
B11: Compound 38 (peptide)
peptide: Y[Aib]EGTFTSDYSILLEEQAAREFIEWLLAGGPSK(Chem. 28)GGQAPGQAPGEASHLSTAQTQRLSAELHELATLPRTETGSGSP-NH2
modifications: reading uncertain
B12: Compound 49 (peptide)
peptide: Y[Aib]EGTFTSDYSILLEEQAAREFIEWLLAGGPSSGAPPPSGGGEASHLSTAQTQRLSAELHK(Chem. 28)LATLPRTETGSGSP-NH2
modifications: reading uncertain
B13: Compound 53 (peptide)
peptide: Y[Aib]EGTFTSDYSILLEEQAAREFIEWLLAGGPSSGAGQAPGQAPGASHLSTAALGRLSAELHK(Chem. 28)LATLPRTETGSGSP-NH2
modifications: reading uncertain
B14: Compound 45 (peptide)
peptide: H[Aib]HGTFTSDYSILLEEQAAREFIEWLLAGGPSK(Chem. 28)GALAQTLGTNEASHLSTAQTQRLSAELHELATLPRTETGSGSP-NH2
modifications: reading uncertain

Assays:
Assay in all cases: cell-based or functional assay
human GLP-1 receptor [1] = target: T3, human GLP-1 receptor (human, UniProt P43220 24-463)
human GIP receptor [2] = target: T1, human GIP receptor
[3] = target: T2, human amylin-3(a) receptor
human GLP-1 receptor [4] = target: T3, human GLP-1 receptor; remark: listed apart in the source
human GIP receptor [5] = target: T1, human GIP receptor; remark: listed apart in the source
[6] = target: T2, human amylin-3(a) receptor; remark: listed apart in the source

Binder | hGLP-1R Potency, no HSA, EC50 [pM] (human GLP-1 receptor [1]) | hGIPR Potency, no HSA, EC50 [pM] (human GIP receptor [2]) | hAMYR3 Potency, no HSA, EC50 [pM] [3] | hGLP-1R Potency, 1% HSA, EC50 [pM] (human GLP-1 receptor [4]) | hGIPR Potency, 1% HSA, EC50 [pM] (human GIP receptor [5]) | hAMYR3 Potency, 1% HSA, EC50 [pM] [6]
B1 | 3.94 pM | 2.34 pM | 2.98 pM | 188 pM | 133 pM | 75.7 pM
B2 | 7.68 pM | 8.37 pM | 6.19 pM | 32.2 pM | 61.9 pM | 57.1 pM
B3 | 16.2 pM | 2.36 pM | 3.2 pM | 66.3 pM | 15.1 pM | 185 pM
B4 | 3.15 pM | 2.02 pM | 2.57 pM | 67.5 pM | 162 pM | 55.8 pM
B5 | 23 pM | 3 pM | 2.22 pM | 45.3 pM | 10.3 pM | 34 pM
B6 | 11 pM | 1.83 pM | 2.85 pM | 26.9 pM | 6.79 pM | 119 pM
B7 | 4.31 pM | 4.38 pM | 3.13 pM | 41.5 pM | 186 pM | 56.5 pM
B8 | 23.7 pM | 1.62 pM | 5.75 pM | 1930 pM | 352 pM | 140 pM
B9 | 18.2 pM | 2.65 pM | 2.36 pM | 58.4 pM | 8.48 pM | 44.9 pM
B10 | 64.8 pM | 7.02 pM | 3.2 pM | 105 pM | 54 pM | 78.5 pM
B11 | 12 pM | 1.37 pM | 3.63 pM | 2350 pM | 336 pM | 172 pM
B12 | 33.3 pM | 4.36 pM | 1.85 pM | 110 pM | 16.7 pM | 106 pM
B13 | 23.3 pM | 3.25 pM | 3.22 pM | 79.2 pM | 14.6 pM | 75.9 pM
B14 | 4.78 pM | 2.63 pM | 4.69 pM | 112 pM | 132 pM | 62.4 pM
